Reference: patent US20230002480A1

What was measured:
Experiment in all cases: cell-based or functional assay
[1] = target: HIV-1 Env of pseudovirus HIV-0013095-2.11 (HIV-1)
[2] = target: HIV-1 Env of pseudovirus BJOX009000.02.4 (HIV-1)
[3] = target: HIV-1 Env of pseudovirus AC10.0.29 (HIV-1)
[4] = target: HIV-1 Env of pseudovirus WEAU_d15_410_787 (HIV-1)
[5] = target: HIV-1 Env of pseudovirus X2088_c9 (HIV-1)
[6] = target: HIV-1 Env of pseudovirus ZM247v1(Rev-) (HIV-1)
[7] = target: HIV-1 Env of pseudovirus Ce1172_H1 (HIV-1)
[8] = target: HIV-1 Env of pseudovirus X1254_c3 (HIV-1)
[9] = target: HIV-1 Env of pseudovirus CAAN5342.A2 (HIV-1)
[10] = target: HIV-1 Env of pseudovirus PVO.4 (HIV-1)
[11] = target: HIV-1 Env of pseudovirus 235-47 (HIV-1)
[12] = target: HIV-1 Env of pseudovirus MS208.A1 (HIV-1)
[13] = target: HIV-1 Env of pseudovirus Q461.e2 (HIV-1)
[14] = target: HIV-1 Env of pseudovirus ZM135M.PL10a (HIV-1)
[15] = target: HIV-1 Env of pseudovirus 1054_07_TC4_1499 (HIV-1)
[16] = target: HIV-1 Env of pseudovirus CNE53 (HIV-1)
[17] = target: HIV-1 Env of pseudovirus T250-4 (HIV-1)
[18] = target: HIV-1 Env of pseudovirus 0815.v3.c3 (HIV-1)
[19] = target: HIV-1 Env of pseudovirus 263-8 (HIV-1)
[20] = target: HIV-1 Env of pseudovirus CAP45.2.00.G3 (HIV-1)
[21] = target: HIV-1 Env of pseudovirus 6240_08_TA5_4622 (HIV-1)
[22] = target: HIV-1 Env of pseudovirus C4118.c09 (HIV-1)
[23] = target: HIV-1 Env of pseudovirus ZM233M.PB6 (HIV-1)
[24] = target: HIV-1 Env of pseudovirus 6535.3 (HIV-1)
[25] = target: HIV-1 Env of pseudovirus Ce704809221_1B3 (HIV-1)
[26] = target: HIV-1 Env of pseudovirus Q259.d2.17 (HIV-1)
[27] = target: HIV-1 Env of pseudovirus P0402_c2_11 (HIV-1)
[28] = target: HIV-1 Env of pseudovirus CNE20 (HIV-1)
[29] = target: HIV-1 Env of pseudovirus RHPA4259.7 (HIV-1)
[30] = target: HIV-1 Env of pseudovirus 191955_A11 (HIV-1)
[31] = target: HIV-1 Env of pseudovirus T278-50 (HIV-1)
[32] = target: HIV-1 Env of pseudovirus 231966.c02 (HIV-1)
[33] = target: HIV-1 Env of pseudovirus CNE52 (HIV-1)
[34] = target: HIV-1 Env of pseudovirus Du156.12 (HIV-1)
[35] = target: HIV-1 Env of pseudovirus 928-28 (HIV-1)
[36] = target: HIV-1 Env of pseudovirus 246F C1G (HIV-1)
[37] = target: HIV-1 Env of pseudovirus Ce703010054_2A2 (HIV-1)

PGT151 (antibody) gave an IC50 [1] of over 50 µg/mL, an IC80 [1] of over 50 µg/mL and an IC50, titer in TZM.bl cells [2] of over 50 µg/mL. The IC80, titer in TZM.bl cells [2] was over 50 µg/mL, the IC50 [3] was 0.007 µg/mL and the IC80 [3] was 0.023 µg/mL. The IC50 [4] was 0.01 µg/mL, the IC80 [4] was over 50 µg/mL and the IC50, titer in TZM.bl cells [5] was over 50 µg/mL. The IC80, titer in TZM.bl cells [5] was over 50 µg/mL, the IC50 [6] was 0.009 µg/mL and the IC80 [6] was over 50 µg/mL. The IC50 [7] was over 50 µg/mL, the IC80 [7] was over 50 µg/mL and the IC50, titer in TZM.bl cells [8] was 0.309 µg/mL. For the same substance, the IC80, titer in TZM.bl cells [8] was over 50 µg/mL, the IC50 [9] was 0.005 µg/mL and the IC80 [9] was 0.038 µg/mL. For the same substance, the IC50 [10] was 0.017 µg/mL, the IC80 [10] was over 50 µg/mL and the IC50, titer in TZM.bl cells [11] was 38.1 µg/mL. The IC80, titer in TZM.bl cells [11] was over 50 µg/mL, the IC50 [12] was under 0.001 µg/mL and the IC80 [12] was 0.003 µg/mL. The IC50 [13] was 12.6 µg/mL, the IC80 [13] was over 50 µg/mL and the IC50 [14] was over 50 µg/mL. For the same substance, the IC80 [14] was over 50 µg/mL, the IC50 [15] was 0.008 µg/mL and the IC80 [15] was 0.032 µg/mL. The IC50 [16] was over 50 µg/mL, the IC80 [16] was over 50 µg/mL and the IC50 [17] was 0.005 µg/mL. It also gave an IC80 [17] of 0.014 µg/mL, an IC50, titer in TZM.bl cells [18] of over 50 µg/mL and an IC80, titer in TZM.bl cells [18] of over 50 µg/mL. The IC50 [19] was over 50 µg/mL, the IC80 [19] was over 50 µg/mL and the IC50 [20] was 0.007 µg/mL. The IC80 [20] was over 50 µg/mL, the IC50 [21] was 0.046 µg/mL and the IC80 [21] was 0.42 µg/mL. For the same substance, the IC50, titer in TZM.bl cells [22] was over 50 µg/mL, the IC80, titer in TZM.bl cells [22] was over 50 µg/mL and the IC50 [23] was 0.027 µg/mL. It also gave an IC80 [23] of 5.16 µg/mL, an IC50 [24] of under 0.001 µg/mL and an IC80 [24] of 0.012 µg/mL. The IC50 [25] was over 50 µg/mL, the IC80 [25] was over 50 µg/mL and the IC50 [26] was over 50 µg/mL. For the same substance, the IC80 [26] was over 50 µg/mL, the IC50, titer in TZM.bl cells [27] was under 0.001 µg/mL and the IC80, titer in TZM.bl cells [27] was 0.004 µg/mL. The IC50 [28] was over 50 µg/mL, the IC80 [28] was over 50 µg/mL and the IC50 [29] was 0.006 µg/mL. It also gave an IC80 [29] of 0.033 µg/mL, an IC50 [30] of 0.004 µg/mL and an IC80 [30] of 0.014 µg/mL. The IC50, titer in TZM.bl cells [31] was 0.13 µg/mL, the IC80, titer in TZM.bl cells [31] was over 50 µg/mL and the IC50, titer in TZM.bl cells [32] was 0.025 µg/mL. It also gave an IC80, titer in TZM.bl cells [32] of 0.183 µg/mL, an IC50 [33] of 0.004 µg/mL and an IC80 [33] of 0.017 µg/mL. For the same substance, the IC50 [34] was 0.005 µg/mL, the IC80 [34] was 0.023 µg/mL and the IC50 [35] was over 50 µg/mL. The IC80 [35] was over 50 µg/mL, the IC50 [36] was over 50 µg/mL and the IC80 [36] was over 50 µg/mL. It also gave an IC50 [37] of 0.013 µg/mL and an IC80 [37] of 0.075 µg/mL.

In the case of VRC07 (antibody), the neutralization IC50 [1] is reported as 0.017 µg/mL, the neutralization IC80 [1] is reported as 0.057 µg/mL and the IC50, titer in TZM.bl cells [2] is reported as 0.806 µg/mL. For the same substance, the IC80, titer in TZM.bl cells [2] was 2.9 µg/mL, the neutralization IC50 [3] was 0.282 µg/mL and the neutralization IC80 [3] was 0.986 µg/mL. For the same substance, the neutralization IC50 [4] was 0.034 µg/mL, the neutralization IC80 [4] was 0.115 µg/mL and the IC50, titer in TZM.bl cells [5] was over 50 µg/mL. It also gave an IC80, titer in TZM.bl cells [5] of over 50 µg/mL, a neutralization IC50 [6] of 0.041 µg/mL and a neutralization IC80 [6] of 0.189 µg/mL. The neutralization IC50 [7] was over 50 µg/mL, the neutralization IC80 [7] was over 50 µg/mL and the IC50, titer in TZM.bl cells [8] was 0.041 µg/mL. It also gave an IC80, titer in TZM.bl cells [8] of 0.2 µg/mL, a neutralization IC50 [9] of 0.307 µg/mL and a neutralization IC80 [9] of 1.05 µg/mL. For the same substance, the neutralization IC50 [10] was 0.063 µg/mL, the neutralization IC80 [10] was 0.226 µg/mL and the IC50, titer in TZM.bl cells [11] was 0.024 µg/mL. For the same substance, the IC80, titer in TZM.bl cells [11] was 0.075 µg/mL, the neutralization IC50 [12] was 0.12 µg/mL and the neutralization IC80 [12] was 0.425 µg/mL. For the same substance, the neutralization IC50 [13] was 0.282 µg/mL, the neutralization IC80 [13] was 1.02 µg/mL and the neutralization IC50 [14] was 0.104 µg/mL. For the same substance, the neutralization IC80 [14] was 0.383 µg/mL, the neutralization IC50 [15] was 0.239 µg/mL and the neutralization IC80 [15] was 1.46 µg/mL. It also gave a neutralization IC50 [16] of 0.031 µg/mL, a neutralization IC80 [16] of 0.086 µg/mL and an IC50, titer in TZM.bl cells [17] of over 50 µg/mL. For the same substance, the IC80, titer in TZM.bl cells [17] was over 50 µg/mL, the IC50, titer in TZM.bl cells [18] was 0.015 µg/mL and the IC80, titer in TZM.bl cells [18] was 0.051 µg/mL. It also gave a neutralization IC50 [19] of 0.103 µg/mL, a neutralization IC80 [19] of 0.282 µg/mL and a neutralization IC50 [20] of 0.355 µg/mL. The neutralization IC80 [20] was 3.09 µg/mL, the neutralization IC50 [21] was 0.448 µg/mL and the neutralization IC80 [21] was 1.54 µg/mL. For the same substance, the IC50, titer in TZM.bl cells [22] was 0.121 µg/mL, the IC80, titer in TZM.bl cells [22] was 0.444 µg/mL and the neutralization IC50 [23] was 0.152 µg/mL. For the same substance, the neutralization IC80 [23] was 0.625 µg/mL, the neutralization IC50 [24] was 0.169 µg/mL and the neutralization IC80 [24] was 0.517 µg/mL. The neutralization IC50 [25] was 0.273 µg/mL, the neutralization IC80 [25] was 1.14 µg/mL and the neutralization IC50 [26] was 0.024 µg/mL. The neutralization IC80 [26] was 0.1 µg/mL, the IC50, titer in TZM.bl cells [27] was 0.085 µg/mL and the IC80, titer in TZM.bl cells [27] was 0.422 µg/mL. The neutralization IC50 [28] was 0.06 µg/mL, the neutralization IC80 [28] was 0.129 µg/mL and the neutralization IC50 [29] was 0.017 µg/mL. It also gave a neutralization IC80 [29] of 0.048 µg/mL, a neutralization IC50 [30] of 0.978 µg/mL and a neutralization IC80 [30] of 4.82 µg/mL. For the same substance, the IC50, titer in TZM.bl cells [31] was over 50 µg/mL, the IC80, titer in TZM.bl cells [31] was over 50 µg/mL and the IC50, titer in TZM.bl cells [32] was 0.105 µg/mL. It also gave an IC80, titer in TZM.bl cells [32] of 0.471 µg/mL, a neutralization IC50 [33] of 0.042 µg/mL and a neutralization IC80 [33] of 0.142 µg/mL. The neutralization IC50 [34] was 0.041 µg/mL, the neutralization IC80 [34] was 0.149 µg/mL and the neutralization IC50 [35] was 0.278 µg/mL. For the same substance, the neutralization IC80 [35] was 0.957 µg/mL, the neutralization IC50 [36] was 0.286 µg/mL and the neutralization IC80 [36] was 1.04 µg/mL. It also gave a neutralization IC50 [37] of 0.19 µg/mL and a neutralization IC80 [37] of 0.912 µg/mL.
